Reference: publication PMC3949714 (PLoS ONE, 2014)

Key:
[1] = RP-HPLC retention time (read by the paper as polarity); type: physicochemical; settings: water/acetonitrile gradient with 0.1% formic acid, MS TIC detection
Protocol: An Agilent binary HPLC composing of an Agilent 1100 LC pump, an Agilent 1100 well plate auto-sampler (Agilent Technologies, Santa Clara, CA, USA) and a Jupiter 5 μ (C4, 300 A, 150×2.00 mm, 5 μ) RP HPLC column (Phenomenex, Torrance, CA, USA) were used for separation. The mobile phase flow rate was 200 µl/min and the volume of injection was 20 µL. The separations were performed using a binary solvent gradient; water (Milli-Q; Millipore Corporation, Bedford, MA) which contained 0.1% v/v formic acid was used as the solvent A and acetonitrile (Merck KGaA, Darmstadt, Germany) which contained 0.1% v/v formic acid (Nuplex industries Pty Ltd. (NSW, Australia) was used as the solvent B. The chromatographic separation was achieved using the gradient shown in Table 1.
An API 3000 tandem mass spectrometer equipped with a turbo ion spray was used as the detector. Detection was performed in total ion current (TIC) mode (MS1/Q1), in positive mode, within the range 200–3000 amu. The data were acquired and processed by Analyst 1.5 software (Applied Biosystems, Foster city, CA, USA). Mass spectra were obtained using: declustering potential (DF) of 16 V, focusing potential (FP) of 120 V, Entrance potential (EP) of 10 V, and Ion spray voltage (IS) of 5000 V. Structure identity of fragments was performed using the respective mass/charge (m/z) values of each peptide metabolite. Direct flow injections were carried out using Model 11 plus Harvard Syringe pump (Harvard Apparatus Inc, Holliston, MA, USA).

[2] = Biotransformation in homogenised inflamed tissue at pH 5.5 (LC/MS, mean residence time); settings: for MRT: MES pH 5.5, 37°C, 120 min, AUMC/AUC of LC/MS peak intensity
[3] = incubation of BE 1-17, Jupiter C4 column
[4] = incubation of BE 1-17 (115 µM) in rat inflamed tissue homogenate
[5] = incubation of BE 1-13, Jupiter C4 column
[6] = incubation of BE 1-31, Jupiter C4 300 A column, 200 µl/min
[7] = incubation of BE 1-13 (115 µM) in rat inflamed tissue homogenate
[8] = incubation of BE 1-31 (115 µM) in rat inflamed tissue homogenate
[9] = incubation of BE 1-11, Jupiter C4 column
[10] = incubation of BE 1-11 (115 µM) in rat inflamed tissue homogenate

| Substance | RT [1, 3] [min] | RT [1, 6] [min] | also measured |
| --- | --- | --- | --- |
| BE 3-17: beta-endorphin fragment, residues 3-17 (GFMTSEKSQTPLVTL; Beta-endorphin; UniProt P01189 239-253, looked up, fragment) | 24 | – | MRT [2, 4]: 6.2 |
| BE 2-13: des-tyrosine beta-endorphin fragment, residues 2-13 (GGFMTSEKSQTP; Beta-endorphin; UniProt P01189 238-249, looked up, fragment) | 17.08 | 19.96 | Rt [1, 5]: 17.2 min; MRT [2, 7]: 16.4; MRT [2, 4]: 25.5; MRT [2, 8]: 65 |
| BE 4-11: beta-endorphin fragment, residues 4-11 (FMTSEKSQ; Beta-endorphin; UniProt P01189 240-247, looked up, fragment) | – | – | Rt [1, 9]: 13.8 min; MRT [2, 10]: 22.7 |
| BE 3-13: beta-endorphin fragment, residues 3-13 (GFMTSEKSQTP; Beta-endorphin; UniProt P01189 239-249, looked up, fragment) | – | – | Rt [1, 5]: 17.2 min; MRT [2, 7]: 16.1 |
| BE 7-14: beta-endorphin fragment, residues 7-14 (SEKSQTPL; Beta-endorphin; UniProt P01189 243-250, looked up, fragment) | 14.92 | – | – |
| BE 6-16: beta-endorphin fragment, residues 6-16 (TSEKSQTPLVT; Beta-endorphin; UniProt P01189 242-252, looked up, fragment) | 16 | 18.4 | MRT [2, 8]: 22.4 |
| BE 1-14: beta-endorphin N-terminal fragment, residues 1-14 (YGGFMTSEKSQTPL; Beta-endorphin; UniProt P01189 237-250, looked up, fragment) | 21.13 | – | MRT [2, 4]: 13.8 |
| BE 1-16: beta-endorphin N-terminal fragment, residues 1-16 (YGGFMTSEKSQTPLVT; Beta-endorphin; UniProt P01189 237-252, looked up, fragment) | 21.38 | 23.2 | MRT [2, 4]: 7.6; MRT [2, 8]: 9.8 |
| BE 8-14: beta-endorphin fragment, residues 8-14 (EKSQTPL; Beta-endorphin; UniProt P01189 244-250, looked up, fragment) | 16.27 | – | – |
| BE 19-30: beta-endorphin fragment, residues 19-30 (KNAIIKNAYKKG; Beta-endorphin; UniProt P01189 255-266, looked up, fragment) | – | 14.3 | MRT [2, 8]: 72.2 |
| BE 4-15: beta-endorphin fragment, residues 4-15 (FMTSEKSQTPLV; Beta-endorphin; UniProt P01189 240-251, looked up, fragment) | 20.13 | – | – |
| BE 2-15: beta-endorphin fragment, residues 2-15 (GGFMTSEKSQTPLV; Beta-endorphin; UniProt P01189 238-251, looked up, fragment) | 21.33 | – | – |
| BE 4-13: beta-endorphin fragment, residues 4-13 (FMTSEKSQTP; Beta-endorphin; UniProt P01189 240-249, looked up, fragment) | 15.67 | – | Rt [1, 5]: 15.7 min; MRT [2, 7]: 18 |
| BE 4-14: beta-endorphin fragment, residues 4-14 (FMTSEKSQTPL; Beta-endorphin; UniProt P01189 240-250, looked up, fragment) | 18.68 | – | – |
| BE 10-31: beta-endorphin fragment, residues 10-31 (SQTPLVTLFKNAIIKNAYKKGE; Beta-endorphin; UniProt P01189 246-267, looked up, fragment) | – | 24.9 | MRT [2, 8]: 29 |
| BE 4-16: beta-endorphin fragment, residues 4-16 (FMTSEKSQTPLVT; Beta-endorphin; UniProt P01189 240-252, looked up, fragment) | 19.32 | – | – |
| BE 5-16: beta-endorphin fragment, residues 5-16 (MTSEKSQTPLVT; Beta-endorphin; UniProt P01189 241-252, looked up, fragment) | 16.92 | – | MRT [2, 4]: 13.2 |
| BE 18-31: beta-endorphin fragment, residues 18-31 (FKNAIIKNAYKKGE; Beta-endorphin; UniProt P01189 254-267, looked up, fragment) | – | 16.1 | MRT [2, 8]: 18.1 |
| BE 2-17: des-tyrosine beta-endorphin fragment, residues 2-17 (GGFMTSEKSQTPLVTL; Beta-endorphin; UniProt P01189 238-253, looked up, fragment) | 24 | – | MRT [2, 4]: 7.45 |
| BE 10-24: beta-endorphin fragment, residues 10-24 (SQTPLVTLFKNAIIK; Beta-endorphin; UniProt P01189 246-260, looked up, fragment) | – | 28.2 | MRT [2, 8]: 11.3 |
| BE 3-16: beta-endorphin fragment, residues 3-16 (GFMTSEKSQTPLVT; Beta-endorphin; UniProt P01189 239-252, looked up, fragment) | 20.43 | – | MRT [2, 4]: 11 |
| BE 2-12: beta-endorphin fragment, residues 2-12 (GGFMTSEKSQT; Beta-endorphin; UniProt P01189 238-248, looked up, fragment) | – | – | Rt [1, 5]: 16.2 min; MRT [2, 7]: 18.1 |
| BE 3-11: beta-endorphin fragment, residues 3-11 (GFMTSEKSQ; Beta-endorphin; UniProt P01189 239-247, looked up, fragment) | 21.48 | – | Rt [1, 9]: 15.4 min; MRT [2, 10]: 14 |
| BE 10-16: beta-endorphin intermediate fragment, residues 10-16 (SQTPLVT; Beta-endorphin; UniProt P01189 246-252, looked up, fragment) | – | 19 | Time observed as metabolite in homogenised inflamed tissue ([2]; formed during incubation of BE 1–31, pH 5.5, 37°C): over 60 minutes; MRT [2, 8]: 44.3 |
| BE 7-16: beta-endorphin fragment, residues 7-16 (SEKSQTPLVT; Beta-endorphin; UniProt P01189 243-252, looked up, fragment) | 16 | – | – |
| BE 3-12: beta-endorphin fragment, residues 3-12 (GFMTSEKSQT; Beta-endorphin; UniProt P01189 239-248, looked up, fragment) | 20.53 | – | – |
| BE 3-14: beta-endorphin fragment, residues 3-14 (GFMTSEKSQTPL; Beta-endorphin; UniProt P01189 239-250, looked up, fragment) | 20.1 | – | – |
| BE 29-31: beta-endorphin fragment, residues 29-31 (KGE; Beta-endorphin; UniProt P01189 265-267, looked up, fragment) | – | 5.4 | – |
| BE 6-14: beta-endorphin fragment, residues 6-14 (TSEKSQTPL; Beta-endorphin; UniProt P01189 242-250, looked up, fragment) | 14.62 | – | – |
